# Data: patent US20230374475A1
# Experiments:
# [1] = biological target: engineered T. gorgonarius reverse-transcriptase lacking proof reading activity (3'-5' exonuclease) (TgoRTxo) (Thermococcus gorgonarius (engineered)) (UniProt P56689); test: cell-based or functional assay
# [2] = biological target: T1, TgoRTxo (exonuclease-deficient engineered Tgo reverse transcriptase) (Thermococcus gorgonarius) (UniProt P56689); settings: RT efficiency without KPCNA; Mg, dNTPs; about 45% with 1 uM KPCNA
# T1 sequence: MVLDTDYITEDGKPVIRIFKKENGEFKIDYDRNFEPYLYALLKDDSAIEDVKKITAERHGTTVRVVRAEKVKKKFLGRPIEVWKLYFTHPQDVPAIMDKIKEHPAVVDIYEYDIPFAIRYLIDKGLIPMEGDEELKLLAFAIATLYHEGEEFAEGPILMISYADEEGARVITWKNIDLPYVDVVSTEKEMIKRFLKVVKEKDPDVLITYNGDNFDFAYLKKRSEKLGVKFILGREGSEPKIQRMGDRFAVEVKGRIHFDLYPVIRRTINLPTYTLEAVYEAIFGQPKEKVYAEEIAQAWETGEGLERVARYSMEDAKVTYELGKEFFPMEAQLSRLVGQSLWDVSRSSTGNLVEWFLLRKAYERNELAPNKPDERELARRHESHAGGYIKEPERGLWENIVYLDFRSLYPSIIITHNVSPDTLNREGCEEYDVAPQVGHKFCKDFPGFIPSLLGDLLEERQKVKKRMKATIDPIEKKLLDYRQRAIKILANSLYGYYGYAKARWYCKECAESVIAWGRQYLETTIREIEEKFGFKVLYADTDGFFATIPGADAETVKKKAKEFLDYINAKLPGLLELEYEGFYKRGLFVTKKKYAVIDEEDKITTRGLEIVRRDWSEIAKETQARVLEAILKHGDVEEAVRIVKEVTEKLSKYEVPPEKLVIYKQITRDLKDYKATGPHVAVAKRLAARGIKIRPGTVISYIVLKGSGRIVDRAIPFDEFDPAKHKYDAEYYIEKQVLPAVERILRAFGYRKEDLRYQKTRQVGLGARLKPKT
RT efficiency of TgoRTxo at 3.5 uM KPCNA compared to no KPCNA [1] [fold],"efficiency of reverse transcription (fold increase, KPCNA raised from 0 to 1 uM) [1] [fold]",reverse transcriptase efficiency of TgoRTxo in the absence of KPCNA (baseline) [1] [%],reverse transcriptase efficiency of TgoRTxo with 1 uM KPCNA [1] [%],Substance,activity [2] [%]
3,4,10,45,T. kodakarensis proliferating cell nuclear antigen (KPCNA) (from UniProt Q5JF32 2-249),
,,,,~600 nt RNA template with DNA primer,10
